In the DeepSol protein solubility set:

experiment: soluble on expression in E. coli; label from the status in PepcDB or PDB records

Soluble on expression in E. coli, soluble:
MAHHHHHHMSLPIMSVVRMAVQELPLLSFAPTSLVSDGCVFLPTLSDCSAFAGCSITSATLQCDGTLLIKVVPAILRLIPLKGISSSHGYSSLAAGGSHSEAVALLKGLPTVRLQAVSPVFPLFTPGGCVEYFSATSQQTTAAVPVLTNTIREHLRRLRAYVPQHLDELVPSAPSKVSSWFVVSYPGADAVPEPCLFVLPDVLVVRTVMSQVGSRKIPPHHKRSVAVMGQSGVAKLLEELKWSGCAVRVVDDANHVCVLPPTLTAASQMKQVTH
MAHHHHHHMSNCPHPRGDCGGRSVAAEGTLVPSHISCGDFTFQGGQTPRKELAGVHTSALMQPGLSSAVPSNSILSFSHDVVAAGNGMPPSVSPASSEKKKVLGTSGGGGSAEGTLNSANSSDQGPTGTPVKRNTKPLVPQQHVTKCQLTPNDAAASGLLITTPETPCNEKNPVYAAVGAARQSRERMISAENFTVIQPGGKLRTHLPPQRESGSDKKGKK
MAHHHHHHMSRLLKHYGSCKTAFFCCDIQEKFMGRIANSANCVFVANRFAGLHTALGTAHSVYIVTEQYPKGLGATSADIRLPPDAHVFSKKRFAMLVPQVMPLVDLPEVEQVVLWGFETHVCILQTAAALLDMKKKVVIAVDGCGSQSQGDHCTAIQLMQSWSGDGCYISTSESILMQLLKDASDPVFKTIAPLMKQTHPIRI
MAHHHHHHMSSVINYEKFEKIDISSSDDDNKKKLNPHLTKLDNKDKVVIGPNGLTILKNNNDEKIKHDKYNNTSKNVEEIKDKNDEYKTIYNETNNEILNNKNDNIHVQNMNNYVADDKKYKDMFINGAVVPYEYIWNQSIHYINAFICLPLNCKAKNLIVDIKEDKLIVKIKNYKCGIIYNNNNNNNKTNQHNTQSNSFHDNVEILVDKKFPFKINTDEDTQIWEIKNMQINWYTLFNLSNEINNQNVHYLFEDYNMLDKQETFLYISVKKINEIENAYIWWSTLFKNEHPIKIENLPSRSSTNKAKKTMNSFKTAWDEAHEIFKKNISMKQLPFRIDSS
MAHHHHHHMTTYTLVLLRHGESTWNKENKFTGWTDVPLSEKGEEEAIAAGKYLKEKNFKFDVVYTSVLKRAICTAWNVLKTADLLHVPVVKTWRLNERHCGSLQGLNKSETAKKYGEEQVKIWRRSYDIPPPKLDKEDNRWPGHNVVYKNVPKDALPFTECLKDTVERVLPFWFDHIAPDILANKKVMVAAHGNSLRGLVKHLDNLSEADVLELNIPTGVPLVYELDENLKPIKHYYLLDSEELKKKMDEVANQGKAK

Soluble on expression in E. coli, not soluble:
MAHHHHHHMSLSIHTNYGDIKIELFCYEVPKTCKNFLALCASGYYDNTKFHKNIKGFAIQGGDPTNTGKGGQSIYGKYFEDEFDSTLKHDKRGIVSMANKGKPNTNGSQFFITYSRQPHLNGIYPVFGKVIDGMDVLSVLENEPVGEKSRPIKDIIIETITIHANPIAEEESVDN
MAHHHHHHMSMNNPAPSPQAPMAAPLDASATVHPRENLAVSAPPGATGAGHNKRLPEELAEFLHTQPPRMETINERKQLFCTRLYMTPPRVLATEGAERRGETLGASLTATGTTSNDSVVGAPLLRSPPPAVLPAAGAPASLKIAKTVPFSEEEHLAWLCAPASPTESRTSAAVPPEAAASSRGLARTERISHAQSEGVRRHEPDRRAVGATATQQPHLSHGASDAHGNDAPARLQGLVAASMATAPNPATPLALQHGEISYKSSFSVLTSWDALMVAPPLLRTTPRMPSLLTQDVENIGTAAMHLNRSTTVTHACASDDVARIPSTGSRAELLIGTSPATEKGEARQEEARADAVLQQPVFPSSCCTRSPTTVPSRLKYDGHGLSPEDSLHQVEEDSARTFVKHFTNGLVFVDPPWFICPVLLDNCEHPYYMTWLDELEVGSVEEAVAETKAKLLTDA
MAHHHHHHMSNHGGSSSLDALGGVETAAAETTRNIVLGLPKDGPVPGSSDAASLQAAEAFIGSIQQEIMACDMANARAMELYARHWWTKVPYFGKRFGSTTATLEVTGADGGGVSGLPACTGTSDGQHKHMRLERSSEVAAVPGTSRGQQQRLNSWFFKLRHPGWVPIIQRPWVPYFCIGCLMLVWTPDIWKLRTLHWCDYQYAEFRRAVHRAYWRATMSAEDYKELMEELERGRPPPFGVSKCPL
MAHHHHHHMSPASLAKSSQDKTAPSTEGTTRFGDSSPPVAAAASPAMYGQPWNTPTTLHSLVESVTRESGEAAAARAGTSKSTVPRLAVSRSLPCSTTVVQETVTNTGRVVSTVATGAAAPSSLLTGTDTPTPLWRSTATTAAVRAEHLRELEDFLEQRGGRGTSMEGRHKVIQKALSLLPVVYPPLAKVAEPMQRYIEDVAASLRRAATEKGRSAAASGERAVRAVRSVFRREDTRAHAGEEAGRGGGKGGARCRLSPCVQERDVELMAVKEQLMQRMNTCEKTEDQFRDFRHLIASVFNTNQQLNLRIEQLEEVLARHRIDLPPASEEMMAFQTSLDGQRSFVPQASTVDGDGDDDSSSGG
MAHHHHHHMSSSAEEKEAKKQEELRLAGSDSEGVRAAVKAQRELKKKRDALRKVQKKIRSGGSDAEVAAAIEQEAALLAEIGHLEALRGASSAPSTAHVAAASFTSTPATAAASPGALVTVATNKSSGAKAARSGEPAKEITAEERAASAKRLHDLVQGAMDANRLKCLHVLPRDAVVHPRIAEVAVLMEQMLLVGGSARALALISAFRELSRTTTVLAVPSLNEVNTTAFEKLIQINFDFVRRKREASAGMRHVKDVLVRRFVALRDEVIHPKPNMVDLIKDL
MAHHHHHHMSVATEMKVEEGIHLCGDQEFKLEDISSCVSEIFEKKKKYENIPFIQVAPMINVTNRHFRALVRTITRRAQVWTEMIVDNTLLYNLNNLEEHLGFNSNEHPIVCQLGGSDATSLAEAAVLVEQAGYDEINLNVGCPSTKVANKGAFGAYLMKKPEHVRNIVYEIKRKVHIPVSVKIRTGVDDCDSFPFLRSFVECISSVGCSHFIVHARKAWLKGLDPKQNRSVPPLEYPKVYSLCQLYPHLKFTLNGGVKTVEEAVALLNGYLPKKGNVDSEKTYVQVKNYQVNPLHGVMLGRACMENTTVLSQTDQLVYNEKPPHTAFSRRTVLDAYKSYLEENSSLCSLSSAFELLKPVLGILKGMPGHRIFRNKLDMYIRNYASTLPCSGILEKAMVDVDAVAPGCLDLPLADYKLQQEYIKNY
MAHHHHHHMTDPTRRDPTEFLRVLRRMSNTTSWQKAMIFASKGRMVGYRLTLEHYNTVLYSQSMWGRALEMIKVIRAMQQDGVQPNGATYYYIVNGMANAEHGYNYDFNINHRLEKLQHWRVALNALQACEANGFDSTDTMHNSVIVTMTIPGMNHWREALQVLKKIIDEDRQLHPNMVRFLHDCLIRNYRPREASDLLRCAAERGVKGYETAWETDVYKGKPTDAQLEASQAEAAVTDAAGTECVAGSSGALSSSTSDCKKAAHNSAQASAAATLMALQLRGDQTLPPPQMRSALQEEMERSITAERQALRPFTAGLHYTEMRSVFRPRVHRQLWYQWHQIANRYRPTASLKRRQLAPRDSPTGIPAWNRL
MAHHHHHHMTELLSAGEVQHPCGWAFAFPFVKRVPPAKLVRLLGTATLLDRIRENDPTLRSVRLDYELLPREEIMQALLGNNTISSVVIARVIPRNSTGTDFARFLESLYHLPLRSVQVQDGEKLPSSYLNHLLYLVEYCSGVGKACKWTDGKCYAGADLNTGNTTTEINDAEEFNGNNSREDVDSEVLDYKRGAVLEFVDFSGCRLTVRQAQWLGDILFHRRCTLRHVNACECRLGNGGVRALLRRVNTSPRLKAASIAEGSVVPLDMIELRWNGVTEDESIRNFVDVVERSPDCWTCMTVYGNYISPHMYTRCEAQVVKAKRLMEEERLKRREIPTNVEVAQPDGRLSSEKGTSCSPRRYFVDLLTSVAGEVDFVCPSLRAVSSLLHEEP
MAHHHHHHMTENFLIFGLPFLPQCNDTLPSSQFKCLVAEMGPLGQALRPFVVPTLKVGTLDSLIEASDELAKLDPQLENNVEKLIALMEETSQKPRSVVSALRINQTQEMTPAAYIKNFLWSSAQFDTREKIQSLIEKLSQISASIEERIRVLLSEYNETRNRLTAVNRKTQGNLSVKPIRELVASYNQKFQCFVDTEMLVTLFVVVPLASQKEWLETYWSLNEFVCPQSNRVIAEDKECVLNSIVTFRKAMDDVKMICRKKRFTVRDIDGVDDLSVAEVKELNQKAEKERKALYTVLWQQYSLCYVAWVHVKALRVFVESLLKYGLPPRCISVVLQVDGKKEAEIRKKILQIYPNLISPLTNEPPTDTGMLQYEYPYVSLKVTNFQKD
MAHHHHHHMTILSLHGRNGADAQKWFESGLLPFPGGQKSFEMVSVMPALVYHHCMLYWAKLGCAALLQEGSVEMTGKAGSETLMFVVRNICCIQIAESPRCLPNWRLLDRVLDELLKRLDFVANCEDGVWSFASTTMRRMQCYLRSNIIRYLEVRDRPLEGQCGLLRYRGAFDCAINGVNSSGASGMGGCQTTDEVHVEVLSAETLRSAVQVMCGCDGVKVPCGDSSGGVKDGADALADLELEEFFCRYFLCSAPAAFDQPTKPTVRE
MAHHHHHHMTLTSRTAQAAHAQNDVAAQRPPPPLYPSMNVGASAVHPHQNRPCHAYDSQPAWQNPQLGTAPPAVIAGAPLAPEQQQQQTHQQGRSNQPQSIFGGRFTLLDRLGSGGFGEVYRAEECDQLVPLAVKVERVTDTNALPEQSFLFHEAKVMQEIHKSIQAYMAAQQQHQLLRLQQEKAQSGNGRRANNEAAAAADEVRQEKVGIAKLKYYGQDGMSRVLIMSLHGQSVANVHRHQGRLSLFATVMIADQVLRSLEHVHRAGYVHADLKPDNILLGREDPEQLYLVDFGLSVHFRDRKGKHRPLVTNHSFVGTPRYASLRTHMGHTLSRRDDIEQLVYVMIYLFRGRLPWSGLRISDPDAKEKRIAQMKAEMTLDSICAGCPEAFRDVLNYARCMEFEEEPQYQFLHVLLCSLRDSCTELSSDPSCVPANGSGGVMPQMLTLNVNCSTRQHPKDQNGGDAAANGGAVGVTAAEAGLVQNTNIVSGVVEQIDGVAENPMMMSSRGTGAPAFFSDAIGQGFLSGNGTDAGPLSPRIDCLNGQPFSPPPLDLQRPCGSPQLRQMR
MAHHHHHHMTTTASPQTGSSPTVPTPVAPPSIDEALSYWIGLSRLIHRVCVTSDSTPSADEGEPSTFTRYALHCVLLCCGIKQHRVRQTADHMLAQLLSAAYTTAAALTGPVVLLDSESPASTPFRSPVRQLPVPLPVLVADWLKQSSADDQKASQHNRYCLRVPAVTWTRSIIKWLGSELRGQMISLRPLSRWNMVCAQQSGRMPVVIFVGGASGAGKSTLASLVASQLRVPNVLSTDTVRQVLRARLCGHEAQFPALFVSTYEAHKVTADDSHASADDGSAVPHAQSADENAIVQGYEAQCELVLRVLDGMLARLLARRESIVVEGVHLLPRYLAAKRAELLVSRVACVPVLVRIPKADSHLERLCIRARGMSMRAQNNKYIASFKAIRAIQAHLVDSVEAASLPVLVLSNTNMDKSFTALHHTLLETMEYAAVHGWPADAAAAADVPLTGLVFRAVKDRLVAVVRQRRWRRSATNDNISTSSGTGASAPGDEEKGGVATGPFSALVLAPHARPPVHSPAGSSNGAAPRARSAELLGVVQRCLLEQGLRYHSRTSNAQVDAATVYGSSGVLGARDASSRFHAHVVIRRSFTIAAKSHISMTASSHLPLDNHNEEFDELEIPSLIGS
MAHHHHHHMVEEVTIGRDFVTVRRVDDDDTAAAVRQYAVRLGGNPTATPEETAERSAALQRKVMDAMEENCEQVKTLSGRNDPNESVDGGGENTEDNLGSQGGVALDSVDEAALRDLVRSTHWSELKLHVSALLTDHLYSGRAHIDADAPHPHPDTIPQDGDSEVVVVLKELISTTIRPQLQADGGDIRFVGLADSVMLVEMLGACRKCRSSKTTLRDMIERTTRHWVPEVQKVEEVER
